In the MegaScale stability set (Tsuboyama et al. 2023):

B1: EEHEE_rd4_0003 (parent)
chain: KKVTINGVEIKFNNPEEAVKFALELAKRLNLRIEFHGDQIKIE

Variants of: B1
Assay: folding stability dG (cDNA display proteolysis); higher = more stable
Conditions: PBS, room temperature

Row | Variant | folding stability dG [kcal/mol]
1 | L23C | 3.18
2 | L23K | 2.17
3 | L23D | 1.47
4 | L23Y | 2.43
5 | L23F | 2.46
6 | L23W | 2.35
7 | L23N | 1.95
8 | L23E | 2.12
9 | L23Q | 2.13
10 | L23R | 2.19
11 | L23T | 2.29
12 | L23V | 2.29
13 | L23G | 1.43
14 | L23M | 2.52
15 | L23P | 0.007
16 | L23A | 1.91
17 | L23I | 2.57
18 | L23S | 1.88
19 | L23H | 1.95
20 | L31F | 2.25
21 | L31W | 2.51
22 | L31K | 1.2
23 | L31I | 2.5
24 | L31A | 2.72

Row | Variant | folding stability dG [kcal/mol]
25 | L31P | 0.746
26 | L31C | 2.84
27 | L31M | 2.67
28 | L31S | 1.7
29 | L31Y | 2.14
30 | L31E | 0.917
31 | L31V | 2.56
32 | L31N | 0.824
33 | L31G | 2.42
34 | L31Q | 1.13
35 | L31T | 1.71
36 | L31H | 1.4
37 | L31R | 1.34
38 | L31D | 0.559
39 | R32P | 1.71
40 | R32D | 1.56
41 | R32S | 2.17
42 | R32Y | 2.15
43 | R32F | 2.12
44 | R32N | 2.03
45 | R32C | 2.81
46 | R32T | 2.31
47 | R32I | 2.36
48 | R32M | 2.07

Row | Variant | folding stability dG [kcal/mol]
49 | R32Q | 2.1
50 | R32H | 2.24
51 | R32V | 2.33
52 | R32W | 2.2
53 | R32E | 1.64
54 | R32K | 2.54
55 | R32L | 2.19
56 | R32G | 1.6
57 | F35H | 1.88
58 | F35Y | 2.41
59 | F35P | 1.31
60 | F35R | 1.8
61 | F35K | 1.78
62 | F35E | 1.63
63 | F35I | 2.58
64 | F35N | 1.46
65 | F35M | 2.24
66 | F35A | 1.71
67 | F35C | 3.05
68 | F35Q | 1.79
69 | F35T | 1.82
70 | F35W | 2.7
71 | F35V | 2.37
72 | F35L | 2.2

Row | Variant | folding stability dG [kcal/mol]
73 | F35G | 1.41
74 | F35S | 1.64
75 | F35D | 1.5
76 | N30Q | 2.38
77 | N30C | 3.46
78 | N30D | 1.9
79 | N30K | 2.55
80 | N30R | 2.61
81 | N30Y | 2.42
82 | N30E | 1.86
83 | N30I | 2.34
84 | N30A | 2.23
85 | N30G | 2.65
86 | N30M | 2.43
87 | N30L | 2.51
88 | N30P | 1.82
89 | N30H | 2.47
90 | N30T | 2.12
91 | N30W | 2.72
92 | N30F | 2.55
93 | N30S | 2.2
94 | N30V | 2.29
95 | R28E | 2.08
96 | R28S | 2.35

Row | Variant | folding stability dG [kcal/mol]
97 | R28I | 2.54
98 | R28P | 1.29
99 | R28H | 2.22
100 | R28N | 1.99
101 | R28Y | 2.63
102 | R28Q | 2.21
103 | R28F | 2.5
104 | R28M | 2.5
105 | R28G | 1.91
106 | R28C | 3.28
107 | R28V | 2.36
108 | R28A | 2.39
109 | R28D | 1.69
110 | R28L | 2.57
111 | R28W | 2.68
112 | R28K | 2.33
113 | R28T | 2.2
114 | A26H | 1.47
115 | A26R | 1.73
116 | A26Y | 2.29
117 | A26W | 2.14
118 | A26Q | 1.78
119 | A26N | 1.43
120 | A26M | 2.37

Row | Variant | folding stability dG [kcal/mol]
121 | A26C | 2.98
122 | A26T | 1.92
123 | A26D | 0.982
124 | A26P | 1.19
125 | A26E | 1.33
126 | A26G | 1.91
127 | A26S | 2.23
128 | A26I | 2.3
129 | A26F | 2.56
130 | A26V | 2.26
131 | A26K | 1.66
132 | A26L | 2.52
133 | I33A | 1.69
134 | I33G | 0.975
135 | I33H | 0.908
136 | I33F | 1.98
137 | I33D | 0.681
138 | I33N | 0.797
139 | I33P | 1.29
140 | I33M | 1.92
141 | I33V | 2.67
142 | I33L | 2.35
143 | I33R | 0.847
144 | I33W | 2.08

Row | Variant | folding stability dG [kcal/mol]
145 | I33E | 0.529
146 | I33Y | 1.74
147 | I33Q | 1.08
148 | I33S | 0.908
149 | I33K | 0.882
150 | I33T | 1.31
151 | H36I | 2.93
152 | H36M | 2.72
153 | H36V | 2.89
154 | H36K | 2.53
155 | H36D | 2.76
156 | H36T | 2.7
157 | H36L | 2.88
158 | H36G | 2.28
159 | H36R | 2.52
160 | H36C | 3.21
161 | H36N | 2.58
162 | H36Y | 2.75
163 | H36A | 2.62
164 | H36E | 2.58
165 | H36W | 2.73
166 | H36P | 1.71
167 | H36S | 2.66
168 | H36F | 2.78

Row | Variant | folding stability dG [kcal/mol]
169 | H36Q | 2.56
170 | G37D | 2.45
171 | G37Q | 2.44
172 | G37W | 2.44
173 | G37I | 2.35
174 | G37M | 2.52
175 | G37H | 2.42
176 | G37A | 2.39
177 | G37P | 2.49
178 | G37N | 2.41
179 | G37L | 2.45
180 | G37E | 2.52
181 | G37T | 2.26
182 | G37K | 2.47
183 | G37F | 2.48
184 | G37Y | 2.41
185 | G37R | 2.29
186 | G37V | 2.38
187 | G37S | 2.35
188 | G37C | 2.68
189 | A22R | 1.16
190 | A22L | 2.98
191 | A22W | 2.68
192 | A22M | 2.59

Row | Variant | folding stability dG [kcal/mol]
193 | A22K | 1.21
194 | A22P | 0.416
195 | A22N | 0.81
196 | A22V | 2.74
197 | A22S | 1.59
198 | A22Q | 1.22
199 | A22Y | 2.39
200 | A22T | 2
201 | D38G | 2.31
202 | D38Q | 2.25
203 | D38E | 2.3
204 | D38T | 2.29
205 | D38Y | 2.45
206 | D38K | 2.15
207 | D38I | 2.49
208 | D38N | 2.61
209 | D38W | 2.73
210 | D38M | 2.34
211 | D38H | 2.25
212 | D38P | 2.1
213 | D38F | 2.7
214 | D38S | 2.32
215 | D38R | 2.01
216 | D38A | 2.15

Row | Variant | folding stability dG [kcal/mol]
217 | D38V | 2.23
218 | D38C | 3.49
219 | D38L | 2.33
220 | E24V | 2.35
221 | E24H | 2.23
222 | E24P | 1.47
223 | E24W | 3.15
224 | E24K | 2.4
225 | E24D | 2.46
226 | E24N | 2.35
227 | E24Y | 2.73
228 | E24L | 2.66
229 | E24F | 2.58
230 | E24C | 4.19
231 | E24R | 2.55
232 | E24S | 2.49
233 | E24A | 2.88
234 | E24Q | 2.57
235 | E24G | 2.28
236 | E24T | 2.43
237 | E24I | 2.49
238 | E24M | 2.73
239 | E34Q | 2.44
240 | E34S | 2.77

Row | Variant | folding stability dG [kcal/mol]
241 | E34A | 2.29
242 | E34H | 2.42
243 | E34Y | 2.77
244 | E34P | 1.48
245 | E34F | 2.74
246 | E34L | 2.49
247 | E34I | 2.93
248 | E34D | 2.12
249 | E34G | 1.96
250 | E34K | 2.42
251 | E34T | 2.86
252 | E34M | 2.47
253 | E34V | 2.73
254 | E34W | 2.62
255 | E34N | 2.27
256 | E34R | 2.58
257 | E34C | 3.19
258 | Q39M | 2.88
259 | Q39V | 3.18
260 | Q39C | 3.11
261 | Q39R | 2.52
262 | Q39I | 3.05
263 | Q39D | 2.64
264 | Q39P | 1.77

Row | Variant | folding stability dG [kcal/mol]
265 | Q39L | 2.95
266 | Q39H | 2.91
267 | Q39S | 2.75
268 | Q39W | 3.07
269 | Q39K | 2.33
270 | Q39Y | 3.04
271 | Q39N | 2.82
272 | Q39F | 2.91
273 | Q39E | 2.92
274 | Q39A | 2.62
275 | Q39G | 2.52
276 | Q39T | 3.22
277 | I40A | 1.49
278 | K27V | 2.24
279 | K27N | 2.32
280 | K27F | 2.63
281 | K27P | 1.37
282 | K27D | 2.03
283 | K27Y | 2.44
284 | K27T | 2.52
285 | K27G | 2.39
286 | K27I | 2.4
287 | K27L | 2.62
288 | K27C | 3.23

Row | Variant | folding stability dG [kcal/mol]
289 | K27A | 2.72
290 | K27M | 2.57
291 | K27W | 2.47
292 | K27R | 2.79
293 | K27H | 2.48
294 | K27Q | 2.47
295 | K27E | 2.38
296 | K27S | 2.52
297 | L29F | 2.65
298 | L29M | 2.38
299 | L29P | 1.52
300 | L29E | 1.66
301 | L29I | 1.9
302 | L29H | 2.21
303 | L29W | 2.43
304 | L29A | 1.74
305 | L29Y | 2.67
306 | L29S | 1.55
307 | L29T | 1.61
308 | L29Q | 1.73
309 | L29K | 1.6
310 | L29R | 1.43
311 | L29C | 3.71
312 | L29V | 1.77

Row | Variant | folding stability dG [kcal/mol]
313 | L29D | 1.29
314 | L29N | 1.72
315 | L29G | 1.88
316 | L25T | 1.7
317 | L25D | 0.443
318 | L25A | 1.9
319 | L25N | 1.32
320 | L25K | 0.98
321 | L25F | 2.44
322 | L25V | 2.24
323 | L25R | 0.955
324 | L25H | 1.48
325 | L25M | 2.46
326 | L25C | 2.82
327 | L25S | 1.11
328 | L25E | 1.56
329 | L25P | -0.052
330 | L25W | 2.53
331 | L25Y | 2.72
332 | L25I | 2.53
333 | L25Q | 1.62
334 | L25G | 0.776
